Results as given in PMC12743552, “Key residues regulating von Willebrand factor A1/A2 interactions: insights from molecular dynamics simulations and experimental validation” (Research and Practice in Thrombosis and Haemostasis, 2025).

B1: VWF-A1 mutant A1_mut (D1323A/R1334A/Q1367A) (domain or fragment)
chain: QEPGGLVVPPTDAPVSPTTLYVEDISEPPLHDFYCSRLLDLVFLLDGSSRLSEAEFEVLKAFVVDMMERLRISQKWVRVAVVEYHAGSHAYIGLKDAKRPSELRRIASQVKYAGSQVASTSEVLKYTLFAIFSKIDRPEASRITLLLMASQEPQRMSRNFVRYVQGLKKKKVIVIPVGIGPHANLKQIRLIEKQAPENKAFVLSSVDELEQQRDEIVSYLCDLAPEAPPPTLPPD
notes: von Willebrand factor, A1 domain, residues Q1238-D1472, with D1323A, R1334A and Q1367A; source: HEK293F cells, culture medium collected, purified (Ni2+-Hi-Trap chelating column); not shown: His tag, N-terminal, kept
B2: recombinant VWF-A2 (von Willebrand factor A2 domain, amino acids M1473-G1672), wild type (domain or fragment)
chain: MAQVTVGPGLLGVSTLGPKRNSMVLDVAFVLEGSDKIGEADFNRSKEFMEEVIQRMDVGQDSIHVTVLQYSYMVTVEYPFSEAQSKGDILQRVREIRYQGGNRTNTGLALRYLSDHSFLVSQGDREQAPNLVYMVTGNPASDEIKRLPGDIQVVPIGVGPNANVQELERIGWPNAPILIQDFETLPREAPDLVLQRCCSG
modifications: biotinylated in the BLI assay (site not stated); not said to be biotinylated in the AFM assay
notes: von Willebrand factor, A2 domain, residues M1473-G1672; cloned from a full-length VWF plasmid (MiaoLingBio); Secreted into the medium of HEK293F cells; The discussion calls the host HEK293 cells; source: HEK293F cells, culture medium collected, purified (Ni2+-Hi-Trap chelating column); not shown: His tag, N-terminal, kept

Assays:
[1] = target: von Willebrand factor A2 G1481-R1668 (Homo sapiens) (UniProt P04275); settings: cited from earlier work
[2] = target: B2; assay: atomic force microscopy (adhesion frequency and rupture force); VWF-A2 (15 ug/mL) held on the cantilever tip and VWF-A1 or its variants (15 ug/mL) on polystyrene dishes, each through adsorbed mouse anti-His mAb; blocked with 2% BSA; approach-retraction speed 200 nm/s in 2% BSA; 100 contact cycles a point; settings: both partners purified
[3] = target: B1; assay: BLI; biotinylated A2 (10 ug/mL) immobilised on streptavidin biosensors, quenched with biocytin; A1 125-4000 nM in solution; Octet R8, 30 °C, 1000 rpm; PBS with 0.02% Tween-20 and 0.1% BSA; global fit to a 1:1 Langmuir model; settings: both partners purified
[4] = target: T1, recombinant VWF-A1 (von Willebrand factor A1 domain, amino acids Q1238-D1472), wild type (UniProt P04275 1238-1472); assay: as above; settings: both partners purified
T1 construct: von Willebrand factor, A1 domain, residues Q1238-D1472; cloned from a full-length VWF plasmid (MiaoLingBio); Secreted into the medium of HEK293F cells; The tag is 6xHis to judge from the anti-6xHis antibody used for capture; also called WT A1; WT VWF-A1; source: HEK293F cells, culture medium collected, purified (Ni2+-Hi-Trap chelating column); not shown: His tag, N-terminal, kept

For “von Willebrand factor A1 A1 (from UniProt P04275)”, the Kd [1] is listed as 0.0649 µM.

For B1, the adhesion frequency [2] was 14.5%, the average rupture force [2] was 41.5 pN and the “central peak value (XC) of the rupture force distribution” value [2] was 35 pN.

For B2, the Kd [3] was 6.1 µM, the koff [3] was 0.081 s⁻¹ and the kon [3] was 13000 M⁻¹ s⁻¹. The Kd [4] was 2.16 µM, the koff [4] was 0.037 s⁻¹ and the kon [4] was 17000 M⁻¹ s⁻¹.

B3: VWF-A2 mutant A2_mut (V1546A/R1575A/E1598A) (domain or fragment)
chain: MAQVTVGPGLLGVSTLGPKRNSMVLDVAFVLEGSDKIGEADFNRSKEFMEEVIQRMDVGQDSIHVTVLQYSYMATVEYPFSEAQSKGDILQRVREIRYQGGNATNTGLALRYLSDHSFLVSQGDRAQAPNLVYMVTGNPASDEIKRLPGDIQVVPIGVGPNANVQELERIGWPNAPILIQDFETLPREAPDLVLQRCCSG
notes: von Willebrand factor, A2 domain, residues M1473-G1672, with V1546A, R1575A and E1598A; source: HEK293F cells, culture medium collected, purified (Ni2+-Hi-Trap chelating column); not shown: His tag, N-terminal, kept
B3 showed a Kd [4] of 4.2 µM, a koff [4] of 0.046 s⁻¹ and a kon [4] of 11000 M⁻¹ s⁻¹.
